Measurements taken from PMC7699296, “Dual-Channel Stopped-Flow Apparatus for Simultaneous Fluorescence, Anisotropy, and FRET Kinetic Data Acquisition for Binary and Ternary Biological Complexes” (Biosensors, 2020).

How the values were obtained:
Conditions in all cases: both partners purified
[1] = molecular target: T1, full-length Tata Binding Protein from Saccharomyces cerevisiae (Saccharomyces cerevisiae, UniProt P13393 1-240); experiment: stopped-flow fluorescence anisotropy kinetics (dual-channel, rF(t)); derived over the range 15 °C to 25 °C from the kon values: van't Hoff plot, and KD estimated with a dissociation rate constant cited from other work
T1 construct: also called yTBP; TBP; source: Escherichia coli, purified
T1 sequence (looked up): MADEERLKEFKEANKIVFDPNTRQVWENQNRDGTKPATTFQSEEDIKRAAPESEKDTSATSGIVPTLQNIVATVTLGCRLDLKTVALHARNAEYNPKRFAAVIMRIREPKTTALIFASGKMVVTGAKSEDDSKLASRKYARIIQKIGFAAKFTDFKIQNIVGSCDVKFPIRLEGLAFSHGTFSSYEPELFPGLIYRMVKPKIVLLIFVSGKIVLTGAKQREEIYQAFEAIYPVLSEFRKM

[2] = molecular target: T1, full-length Tata Binding Protein from …; experiment: stopped-flow fluorescence anisotropy kinetics (dual-channel, rF(t)); 15 °C; preformed yTBP (220 nM)-AdMLP31ds*Flint (20 nM) in syringe 1, 850 nM TFIIA in syringe 2 (concentrations after mixing); 25 mM Tris, 100 mM KCl, 5 mM MgCl2, 1 mM CaCl2, 2 mM DTT; biphasic fit, kon from the fast eigenvalue
[3] = molecular target: T1, full-length Tata Binding Protein from …; experiment: stopped-flow fluorescence anisotropy kinetics (dual-channel, rF(t)); 17 °C; preformed yTBP (220 nM)-AdMLP31ds*Flint (20 nM) in syringe 1, 850 nM TFIIA in syringe 2 (concentrations after mixing); 25 mM Tris, 100 mM KCl, 5 mM MgCl2, 1 mM CaCl2, 2 mM DTT; biphasic fit, kon from the fast eigenvalue
[4] = molecular target: T1, full-length Tata Binding Protein from …; experiment: stopped-flow fluorescence anisotropy kinetics (dual-channel, rF(t)); 25 °C; preformed yTBP (220 nM)-AdMLP31ds*Flint (20 nM) in syringe 1, 850 nM TFIIA in syringe 2 (concentrations after mixing); 25 mM Tris, 100 mM KCl, 5 mM MgCl2, 1 mM CaCl2, 2 mM DTT; biphasic fit, kon from the fast eigenvalue

- Kd [1]: 2.1 to 6.6 nM
- dH [1]: 19.6 ± 1.6 kcal/mol
- kon [2]: 1.45e+06 M⁻¹ s⁻¹
- kon [3]: 1.84e+06 M⁻¹ s⁻¹
- kon [4]: 4.68e+06 M⁻¹ s⁻¹
B1: yeast Transcription Factor II A (complex)
chain 1: MSNAEASRVYEIIVESVVNEVREDFENAGIDEQTLQDLKNIWQKKLTETKVTTFSWDNQFNEGNINGVQNDLNFNLATPGVNSSEFNIKEENTGNEGLILPNINSNNNIPHSGETNINTNTVEATNNSGATLNTNTSGNTNADVTSQPKIEVKPEIELTINNANITTVENIDDESEKKDDEEKEEDVEKTRKEKEQIEQVKLQAKKEKRSALLDTDEVGSELDDSDDDYLISEGEEDGPDENLMLCLYDKVTRTKARWKCSLKDGVVTINRNDYTFQKAQVEAEWV
chain 2: MAVPGYYELYRRSTIGNSLVDALDTLISDGRIEASLAMRVLETFDKVVAETLKDNTQSKLTVKGNLDTYGFCDDVWTFIVKNCQVTVEDSHRDASQNGSGDSQSVISVDKLRIVACNSKKSE
modifications: Construct and limits are not given; the full-length TOA1/TOA2 heterodimer is assumed. Species is inferred from the label yTFIIA and the S. cerevisiae TBP used with it.
